Series [1] addresses T1, PKA catalytic subunit (isoform α), mouse (mouse, UniProt P05132 2-351). The series can be described thus: crystal structure; apo RIIβ(1–416, R230K)2:C2 holoenzyme crystals soaked overnight with 5 mM CaCl2 and 1 mM ATP; 2.8 Å. Particulars: both partners purified.
Series [2] concerns the molecule itself. The series is described as above.
Series [3] addresses T1, PKA catalytic subunit (isoform α), mouse. The series is described as follows: SPR; GST-RIIβ 102–416 (nonphospho, phospho or S112A) captured on an anti-GST antibody CM5 chip (80–120 RU), C-subunit injected; buffer A (20 mM MOPS, 150 mM NaCl, 100 μM EDTA, 100 μM EGTA, 0.01% P20) with 1 mM ATP and 10 mM MgCl2; global fit, 1:1 Langmuir; 25°C stated for the series of Fig 5. Particulars: both partners purified. On the technique in general: In SPR one partner is held on a chip, and binding of the other changes the refractive index at the surface.

Series [4] has the same target. The series is described as follows: SPR; GST-RIIβ 102–416 (nonphospho or phospho) captured on an anti-GST antibody CM5 chip (80–120 RU), C-subunit 0.3–200 nM injected; buffer A with 1 mM ADP and 10 mM MgCl2; global fit, 1:1 Langmuir. The following applies: both partners purified.
The target is the same in series [5]. The series is described as follows: SPR; GST-RIIβ 102–416 wild type and S112A captured on an anti-GST antibody CM5 chip (80 RU), C-subunit 30–0.12 nM injected; buffer A with 1 mM ATP and 10 mM CaCl2; 30 μL/min, 25°C. Particulars: both partners purified.
For series [6] the target is unchanged. The series can be described thus: SPR; GST-RIIβ 102–416 (nonphospho or phospho) captured on an anti-GST antibody CM5 chip (80–120 RU), C-subunit 0.3–200 nM injected; buffer A only (chelators EDTA/EGTA, no nucleotide or metal); global fit, 1:1 Langmuir. Particulars: both partners purified.
For series [7] the target is unchanged. The series is described as follows: SPR; GST-RIIβ 102–416 (nonphospho, phospho or S112A) captured on an anti-GST antibody CM5 chip (80–120 RU), C-subunit injected; buffer A (20 mM MOPS, 150 mM NaCl, 100 μM EDTA, 100 μM EGTA, 0.01% P20) with 1 mM ATP and 10 mM MgCl2; global fit, 1:1 Langmuir; 25°C stated for the series of Fig 5. The following applies: both partners purified. The source holds these as a separate data set.

Usually Kd stands for the concentration at which binding is half-saturated. Read a low Kd as higher affinity. Usually koff stands for the first-order rate constant of dissociation. As usually defined, the kon is a measure of how fast the partners come together. Read a high kon as fast association.

B1: RIIβ(1–416, R230K), phosphorylated at Ser112 in the crystal (natural protein)
chain: not shown
modifications: phosphoserine at 112 (after the soak with CaATP)
notes: Two copies stand with two C-subunits in the RIIβ2:C2 holoenzyme; also called pRIIβ; RIIβ(R230K); source: E. coli BL21 (DE3), purified (cAMP resin, cGMP elution); holoenzyme crystals soaked with 5 mM CaCl2 and 1 mM ATP
For the molecule B1, the binding result in series [1] and in series [2] was “binds” throughout.

B2: GST-RIIβ 102–416 (nonphosphorylated, wild type) (domain or fragment, rat, UniProt P12369 102-416, looked up)
chain: PVINRFTRRASVCAEAYNPDEEEDDAESRIIHPKTDDQRNRLQEACKDILLFKNLDPEQMSQVLDAMFEKLVKEGEHVIDQGDDGDNFYVIDRGTFDIYVKCDGVGRCVGNYDNRGSFGELALMYNTPRAATITATSPGALWGLDRVTFRRIIVKNNAKKRKMYESFIESLPFLKSLEVSERLKVVDVIGTKVYNDGEQIIAQGDSADSFFIVESGEVRITMKRKGKSDIEENGAVEIARCLRGQYFGELALVTNKPRAASAHAIGTVKCLAMDVQAFERLLGPCMEIMKRNIATYEEQLVALFGTNMDIVEPTA
notes: also called nonphospho form of RIIβ; source: E. coli BL21 (DE3), purified (cAMP resin, cGMP elution); cyclic nucleotide-free
As for B2, the Kd was 0.14 nM in series [3], 0.24 nM in series [4] and 0.39 nM in series [6]. Also, the koff was 0.0003 s⁻¹ in series [3], 0.00015 s⁻¹ in series [4], roughly 0.0001 s⁻¹ in series [5] and 0.00021 s⁻¹ in series [6]. Further, the kon stood at 2.1e+06 M⁻¹ s⁻¹ in series [3], 640000 M⁻¹ s⁻¹ in series [4] and 530000 M⁻¹ s⁻¹ in series [6].

B3: phosphorylated GST-RIIβ 102–416 (pRIIβ) (domain or fragment, rat, UniProt P12369 102-416, looked up)
chain: PVINRFTRRASVCAEAYNPDEEEDDAESRIIHPKTDDQRNRLQEACKDILLFKNLDPEQMSQVLDAMFEKLVKEGEHVIDQGDDGDNFYVIDRGTFDIYVKCDGVGRCVGNYDNRGSFGELALMYNTPRAATITATSPGALWGLDRVTFRRIIVKNNAKKRKMYESFIESLPFLKSLEVSERLKVVDVIGTKVYNDGEQIIAQGDSADSFFIVESGEVRITMKRKGKSDIEENGAVEIARCLRGQYFGELALVTNKPRAASAHAIGTVKCLAMDVQAFERLLGPCMEIMKRNIATYEEQLVALFGTNMDIVEPTA
modifications: phosphoserine at 112
notes: source: E. coli BL21 (DE3), purified; phosphorylated in preformed holoenzyme with C-subunit and MgATP, C-subunit released on the chip with 500 nM cGMP
B3: in series [3], the affinity, expressed as Kd, was 7 nM; the koff worked out at 0.00026 s⁻¹; the kon was determined as 38000 M⁻¹ s⁻¹. In series [4], this molecule came in with a Kd of 0.22 nM, a koff of 0.00012 s⁻¹ and a kon of 550000 M⁻¹ s⁻¹. Moreover, in series [6], the affinity, expressed as Kd, was 0.31 nM; the koff was 0.00011 s⁻¹; the kon amounted to 340000 M⁻¹ s⁻¹.

B4: GST-RIIβ 102–416 S112A (domain or fragment, rat, UniProt P12369 102-416, looked up)
chain: PVINRFTRRAAVCAEAYNPDEEEDDAESRIIHPKTDDQRNRLQEACKDILLFKNLDPEQMSQVLDAMFEKLVKEGEHVIDQGDDGDNFYVIDRGTFDIYVKCDGVGRCVGNYDNRGSFGELALMYNTPRAATITATSPGALWGLDRVTFRRIIVKNNAKKRKMYESFIESLPFLKSLEVSERLKVVDVIGTKVYNDGEQIIAQGDSADSFFIVESGEVRITMKRKGKSDIEENGAVEIARCLRGQYFGELALVTNKPRAASAHAIGTVKCLAMDVQAFERLLGPCMEIMKRNIATYEEQLVALFGTNMDIVEPTA
notes: also called RIIβ(S112A); source: E. coli BL21 (DE3), purified (cAMP resin, cGMP elution); cyclic nucleotide-free
For the molecule B4, the binding result in series [7] is reported as “binds”.

Source of the values: PMC4497662, “Single Turnover Autophosphorylation Cycle of the PKA RIIβ Holoenzyme” (PLoS Biology, 2015).
